The text below walks through data of the DeepSol protein solubility set.

A short description of the data set: soluble on expression in E. coli; label from the status in PepcDB or PDB records.
Take “CNFDCLYCELEGKKATDSMGEVAKVEEILEELREALPRYKPDVITVTANGEPTLYPALLPLIRGINALPHSAKTLILSNGSRFGEPEVQEALLEFDMVKFSLDAVSARAFKRVDRAHDSLSISQIIQGIKGFRSRYRGDLIAEVLFVKGVNDSPEEARAIARVLKEIAPSRVDLSTIDRPPAYKVEGVSPQKLEE”: the “soluble on expression in E. coli” value is on record as “not soluble”.

On to “MSLTESESGGDTMMAAVLDVLPHGRPGDDRPQHQKEPLAYALDIDEFYIYELQLADKDADIAFGDRIDLTEFGRVTEVEFEDIPSGARSELDYAVEEVVEANEQRFVDFYNDAQPITLRLHQLNLLPGIGKKLRNTILDERKRKPFESFEDLEKRVSGLHSPKETLVERILEELQDDDLKYRLFVRREEQSSEGHHHHHH”, for which the “soluble on expression in E. coli” value is reported as “soluble”.

As to “MTIKRVGILGAGKVGIVLAGLALKAGYEVRISGSGSVDKIDLTISTLVPGAIASENAEVVANSDIIILAIPLSRYKNIDPTLLKGKLVIDAMNYWWETDGIREEVLDPTLTSSEQVQNYFKDSTIVKTFNHMGYHNLQEEALPKLEHHHHHH”, the “soluble on expression in E. coli” value is given as “soluble”.

“MSVLRRLTWLAFPLLSMAFNVQANTAPAQLNKAELEQRFAKLGLQVEEIKTSDINGLLEVQTSGGVLFSSPDGEHFIAGTLYALDGNGGYVDVLAKRQAPLNAKKIAALQDSMIEFKAPNEKYAITVFTDITCGYCVRLHSQIKEYNDLGITVRYLAYPRQGPQGQVADQMAAIWCSNDPKAAMHDAKVNRKTITADKDIAQCQKTIAQHYMLGHELGISGTPAIFLPNGEMVGGYLPAPQLLQRLQATQ”: the “soluble on expression in E. coli” value is recorded as “not soluble”.

Consider “MRYDVVIIGGGLAGLTCGIRLAEQGKRCAIVSAGQNALHFSSGALDLLSHLPDGQPVSQPLDALDELARQAPHHPYSRMGAAAVAALLPQVEALLERSNISLLGNHQQNHWRMTPLGKFRACWLSPADGVTRGLADSHFGDNPLIAGIEGFLDFQSRIVAGTLQTQGIAARSDELKLPVLDRLRQNPSEFRAVNIARLLDRPENRSALVEELSLLANGNDAIIMPACLGLDSPEIVSELADALGKPVLLLPTLPPSVLGLRLHQALSQRFRQLGGMVMPGDRAVRASLSSQEIAVHSHHHRDIPLRAKHAVLASGSFFSNGLVTQFDRVTEPVFGLDVRFAEQREGWSQQDVFAPQPYMQFGAIVDEHLHPRIAGETVNNLYAIGAVLEGFDPIVQGCGAGVSLLSALHVAEQILKEGNPLEHHHHHH”, for which the “soluble on expression in E. coli” value was “soluble”.

For “MNSGDNIIKKKSFTFAVRIVNLYKVLSSEIKEFVMSKQLLRSGTSVGANIREALNAQSKPGFIHKLAISQKECDETGYTNNVEFESMNTDAIELLKIVRSIIMTSKKNIIHNSLEHHHHHH”, the “soluble on expression in E. coli” value is listed as “not soluble”.

For “MAEELVLERCDLELETNGRDHHTADLCREKLVVRRGQPFWLTLHFEGRNYQASVDSLTFSVVTGPAPSQEAGTKARFPLRDAVEEGDWTATVVDQQDCTLSLQLTTPANAPIGLYRLSLEASTGYQGSSFVLGHFILLFNAWCPADAVYLDSEEERQEYVLTQQGFIYQGSAKFIKNIPWNFGQFQDGILDICLILLDVNPKFLKNAGRDCSRRSSPVYVGRVGSGMVNCNDDQGVLLGRWDNNYGDGVSPMSWIGSVDILRRWKNHGCQRVKYGQCWVFAAVACTVLRCLGIPTRVVTNYNSAHDQNSNLLIEYFRNEFGEIQGDKSEMIWNFHCWVESWMTRPDLQPGYEGWQALDPTPQEKSEGTYCCGPVPVRAIKEGDLSTKYDAPFVFAEVNADVVDWIQQDDGSVHKSINRSLIVGLKISTKSVGRDEREDITHTYKYPEGSSEEREAFTRANHLNKLAEKEETGMAMRIRVGQSMNMGSDFDVFAHITNNTAEEYVCRLLLCARTVSYNGILGPECGTKYLLNLTLEPFSEKSVPLCILYEKYRDCLTESNLIKVRALLVEPVINSYLLAERDLYLENPEIKIRILGEPKQKRKLVAEVSLQNPLPVALEGCTFTVEGAGLTEEQKTVEIPDPVEAGEEVKVRMDLVPLHMGLHKLVVNFESDKLKAVKGFRNVIIGPA”, the “soluble on expression in E. coli” value was “soluble”.

With “MTPQELNAECHACDKTPPAANTYKGWSGFVGLAAQLNQAWRVGYDITSGYRVPNASEVYFTYNHGSGNWLPNPNLKAERSTTHTLSLQGRSEKGMLDANLYQSNYRNFLSEEQKLTTSGTPGCTEENAYYGICSDPYKEKLDWQMKNIDKARIRGIELTGRLNVDKVASFVPEGWKLFGSLGYAKSKLSGDNSLLSTQPLKVIAGIDYESPSEKWGVFSRLTYLGAKKVKDAQYTVYENKGWGTPLQKKVKDYPWLNKSAYVFDMYGFYKPAKNLTLRAGVYNLFNRKYTTWDSLRGLYSYSTTNAVDRDGKGLDRYRAPGRNYAVSLEWKF”, the “soluble on expression in E. coli” value is reported as “not soluble”.

With “MSLSHMGIFKFANGTIRVKDLEKSIEFYRDVIGMHELAREKGVVYFGCGADETFDIAIKEGGTGVEQFALQVADEEDIQYYEKKLTNLGISTQRMSNPEPGKKVALRFAAPSGHQLELALMEDRPHYLHPVAGHKGSRGIGILDADHITLHTKDVKGLAEFLQEALDFRVADVFEPAPGVWGAAWTHASDYHHDVALIGTSEDTTLHHFAFLVSGFEDMKRACDLLAQAGYKIETGPGRHGVGGNLFTYFLDPSGNRIELSAEMPRADRSVPHKVWPDFPPAFSTWGALPPESFAKGEGHHHHHH”, the “soluble on expression in E. coli” value is “soluble”.

Consider “AIAPDESAQVRFLIVGRTGWIANMVAELLEQRGERYAFASFRLEQREACELELDALRPQRVLNCAGVTGRPNVDWCEDHRRETVRSNVLGVLNLADCCASRGIHLTNFATGCLYHYDDGEHRPTAEGGRPFTEDDPPNFFGSYYSRTKAMVEELLRSAFDNVLILRLRMPVSDDLSPRSFVAKIARYEKVVNIPNSMTVLTELLPVALDMSERGLTGVYNFTNPGSISHNEVLELYRKYIDPKFQWKNFTLEEQAKILKAGRSNCELDVRKLLRDNPGAQIREVHAAMEEVFRRMQAKGVKPLAAP”, for which the “soluble on expression in E. coli” value is given as “soluble”.

Consider “MNLKAMDAILEDCCDIVCSDYLPSAMIKSMCIVAERINNLNKAVSLFTSNPAKAVGIYDERGSIKENKKADLVLVDIDSEYPKVVNTIVNGKTVYKRELEHHHHHH”, for which the “soluble on expression in E. coli” value is “not soluble”.

Turning to “GSSGSSGMSSMTQNLREVMKVMFKVPGFDRVLEKVTLVSAAPEKLICEMKVEEQHTNKLGTLHGGLTATLVDSISTMALMCTERGAPGVSVDMNITYMSPAKIGEEIVITAHILKQGKTLAFASVDLTNKTTGKLIAQGRHTKHLGNSGPSSG”, the “soluble on expression in E. coli” value was “soluble”.

With “MGSDKIHHHHHHMPRDTLVSHRQSVDIGGKFSGKTVLTLDVYGTLIDWERGICDALGPILRGHGLSTSEDEMLERYATHESALEAGPYLTYREILEESLLRIAADLGFTPSEYELDIFSHSVGDWPAFADSRAALVALQKRFRLAVITNGDDEFFSLSNKHLKIQFDYVVTAQQARSYKPSLNNFHVALGRIDAPRSQILHVAQSLYHDHVPAQALGLQTVWINRRRGKPGFGAVPKAEAVPDAEFDDMRAFADAMLER”, the “soluble on expression in E. coli” value was “not soluble”.

Consider “MGSDKIHHHHHHVVEQSLSVRNGIRHIVWDWNGTLLDDNHANLAAANHVCEMFGVPPMTLEDWRKIFRRPLVPFYEELLGRPLSDEEWQRLDAAYNSYYQRLLPSCRLADGAVDTLHQWRRAGGTQSLLSMAAHDHLVPVITEFGLVSHFTRVDGRQRTTDADSKAEYLAAHLDAQGIDPATVVLIGDIDDDAHAARMVGAKAVLVATGLMSRERLEATGHPVADSLTEAVQLVHG”, for which the “soluble on expression in E. coli” value is recorded as “not soluble”.

On to “MREAVIVAGARTPIGKAKRGSLKTVRPDDLGALVVKETLKRANYEGPIDDLIFGCAMPEAEQGLNMARNIGGLAGLSYDVPAITINRYCSSGLQSIAYGAERIMLGHSEAVLSGGAESMSLVPMMGHVVRPNSRLVEAAPEYYMGMGHTAEQVAVKYGISREEQDAFAVRSHQRAAKALAAGNFADETVSVDVTLRTVGANNKLQEETITFAQDEGVRAETTLDILGKLRPAFNVRGSVTAGNSSQMSDGAASVLLMDREKAVSDGMKPLAKFRSFAVAGVPPEVMGIGPIAAIPKALKLAGLELSDIGLFELNEAFASQSIQVIRELGLDEEKVNVNGGAIALGHPLGCTGAKLTLSLIHEMKRRNEQFGIVTMCIGGGMGAAGVFELL”, for which the “soluble on expression in E. coli” value is recorded as “not soluble”.

For the sequence “MLSEFLHNKSDAMVNQTHEFLLEMTGVSKEFPGVKALDKVNLKVRPHSVHALMGENGAGKSTLLKCLFGIYEKDEGDIIFLGQHVNFSSSKEALESGVSMVHQELNQVKQCSVMDNIWLGRYPTKGFFVDHDKMYRDTKAIFAELDIDIDPKVKVATLSVSQMQMLEIAKAFSYDAKVVIMDEPTSSLTEKEVNHLFTIIKKLKEKGCGVVYISHKMEEIFSICDEITILRDGQWVDTRPLKGLDMDKIISMMVGRELTQRFPEKSNEPKNVILEVKNLTALNQPSIQDISFELRAGEILGVAGLVGSRRTDIVETIFGVRERSAGHILLHGREMKNHDAHEAIRNGFALVTEERRSTGIYSNLDITFNSLVANVDEYKTPYGLLSDKKMKSDTQWVIDSMRVKTPSHQTHIGSLSGGNQQKVIIGRWLLTQPEILMLDEPTRGIDVGAKYEIYQLILELAKKDKGIIIISSEMPELLGITDRIMVMSNGRNAGIVNTKQTSQNEILELASRYL”, the “soluble on expression in E. coli” value is given as “not soluble”.

“GEPVEFQPKYRDLMLVVDLSGSMQKEDMNLDGEYIDRLSAVKKVLSDFVAKRKGDRLGVVLFGDHAYLQTPLTADRQTVIQQIKQTVIGLVGQRTAIGDGIGLGTKTFVDSDAPQRVMILLSDGSNTAGVLDPIEAAEIAKK”: the “soluble on expression in E. coli” value was “not soluble”.

Turning to “PFWSCLHNQLWNYREADQNRINRNQLPLYGVEGRFERMNQHPNAGSHSFSIGVTEVLNSNLLIELRADDIEYVYQRSPGKIISVIIPTFEALTQFGVATITTQNTGEVEASYSLTFDCSTGVTLMEEQYFIIKPKETSIRSFKIYPTTNQAAKYTCSAILKDSDFSEVDRAECQFSTMATVLDNGSQITPFQPPKSSINDFFESIESIGKKLWEGLRDFITGKACRRKCSSFFDFSCHIQYIC”, the “soluble on expression in E. coli” value was “not soluble”.

“SAAVGAEARGAWCVPCLVSLDTLQELCRKEKLTCKSIGITKRNLNNYEVEYLCDYKVVKDMEYYLVKWKGWPDSTNTWEPLQNLKCPLLLQQFSNDKHNYLSQVITSEEAERRGQFYDNKGITYLFDLDYESDEFTVDAARYGNVSHFVNHSCDPNLQVFNVFIDNLDTRLPRIALFSTRTINAGEELTFDYQMKGSGDISSDSIDHSPAKKRVRTVCKCGAVTCRGYLN”: the “soluble on expression in E. coli” value is on record as “soluble”.

As for “MGSSHHHHHHSSGRENLYFQGHMSNTYQKRKASKEYGLYNQCKKLNDDELFRLLDDHNSLKRISSARVLQLRGGQDAVRLAIEFCSDKNYIRRDIGAFILGQIKICKKCEDNVFNILNNMALNDKSACVRATAIESTAQRCKKNPIYSPKIVEQSQITAFDKSTNVRRATAFAISVINDKATIPLLINLLKDPNGDVRNWAAFAININKYDNSDIRDCFVEMLQDKNEEVRIEAIIGLSYRKDKRVLSVLCDELKKNTVYDDIIEAAGELGDKTLLPVLDTMLYKFDDNEIITSAIDKLKRS”, the “soluble on expression in E. coli” value is given as “soluble”.

As for “MGSDKIHHHHHHAQDRAQQASELLDRLIAGQGDSVYVHLDDNIRKMLSVEMLNGLFKQLEQQAGKYQSHGEWNTEPINGMTVYYCDVKFERLPLRFLTAFNPDGKVNTIRFVPVPPEKTTPPTTSVQDKIKETDIQVCTGNFKLPGTLTLPKNGKDLPVVILVHGSGASDRDETVGANKPFRDLAYGLAERGIAVIRYDKRTKVYGADSAPAGKEITFDEESVDDALSAIKLARSIPTINPERIYILGHSLGGTLAPRIAQRSDKVPAGIILLAGAARPLEDLFISQVKFLASALPSTKDIEKEIAELQKQVDNVKRLGTDTFDITTPLPMNLSQAYWMLANQYKPLEVVRKLTLPILVLQGERDYQVTMQDFELWKSALAKHPNAIFKSYPRLNHLFQEGEGKSTPLEYSRPSSIPSYVTDDIAAFINRPKPGN”, the “soluble on expression in E. coli” value is listed as “not soluble”.
